Source: the supplement of paper PMC7877785
± gives the uncertainty stated by the source.

Test: self-splicing fitness, log relative to wild type (ln ratio); higher = more splicing; Tetrahymena group I intron in knt gene, E. coli kanamycin selection, DiMSum; sequences stand for … in CUCUCU…GGAGGGAAAAGUUAUCAGGCAUGCACCUGGUAGCUAGUCUUUAAACCAAUAGAUUGCAUCGGUUUAAAAGGCAAGACCGUCAAAUUGCGGGAAAGGGGUCAACAGCCGUUCAGUACCAAGUCUCAGGGGAAACUUUGAGAUGGCCUUGCAAAGGGUAUGGUAAUAAGCUGACGGACAUGGUCCUAACCACGCAGCCAAGUCCUAAGUCAACAGAUCUUCUGUUGAUAUGGAUGCAGUUCACAGACUAAAUGUCGGUCGGGGAAGAUGUAUUCUUCUCAUAAGAUAUAGUCGGACCUCUCCUUAAUGGGAGCUAGCGGAUGAAGUGAUGCAACACUGGAGCCGCUGGGAACUAAUUUGUAUGCGAAAGUAUAUUGAUUAGUUUUGGAGUACUCGUGGUCG
How it was run: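 Colonies from six replicate transformations of E. coli BL21(DE3) were pooled and amplicon-sequenced on an Illumina HiSeq 2500. The library placed an intron with all eight P1ex-region nucleotides randomised inside the knt kanamycin-resistance gene on pET-22b(+), and cells grew overnight at 37°C or 30°C on LB agar with or without 25 μg/mL kanamycin (plus 100 μg/mL carbenicillin, 50 μM IPTG, 0.2% rhamnose). Fitness is the DiMSum error-weighted combination of wild-type-normalised replicate fold changes, kanamycin versus none.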

Sequence	self-splicing fitness (ln) (30 °C)	self-splicing fitness (ln) (37 °C)
GCCUAGCAAUAUUACGUUUA	-2.34 ± 0.18	-1.7 ± 0.14
GCGAAGCAAUAUUACGAACG	-1.63 ± 0.16	-0.889 ± 0.21
GCGAAGCAAUAUUACGAAUU	-2.58 ± 0.16	-2.38 ± 0.3
GCGAAGCAAUAUUACGACCG	-1.66 ± 0.25	-0.671 ± 0.21
GCGAAGCAAUAUUACGAGAA	-2.63 ± 0.46	-1.38 ± 0.26
GCGAAGCAAUAUUACGAUUG	-2.92 ± 0.097	-1.64 ± 0.096
GCGAAGCAAUAUUACGCAUU	-2.56 ± 0.17	-2.15 ± 0.19
GCGAAGCAAUAUUACGCCAU		-2.48 ± 0.36
GCGAAGCAAUAUUACGCCGU	-3.41 ± 0.35	-1.81 ± 0.29
GCGAAGCAAUAUUACGCUUU	-2.27 ± 0.19	-2.03 ± 0.4
GCGAAGCAAUAUUACGGACG	-0.0597 ± 0.13	-0.969 ± 0.2
GCGAAGCAAUAUUACGGAGU	-3.66 ± 0.2	-3.43 ± 0.42
GCGAAGCAAUAUUACGGAUA	-1.76 ± 0.12	-0.933 ± 0.12
GCGAAGCAAUAUUACGGGGG	-2.43 ± 0.24	-2.48 ± 0.34
GCGAAGCAAUAUUACGGUCA	-1.7 ± 0.11	-1.36 ± 0.1
GCGAAGCAAUAUUACGUAAA	-1.85 ± 0.16	-2.12 ± 0.23
GCGAAGCAAUAUUACGUAAC	-2.64 ± 0.14	-1.44 ± 0.16
GCGAAGCAAUAUUACGUACU	-0.436 ± 0.073	0.194 ± 0.09
GCGAAGCAAUAUUACGUAUA	-2.18 ± 0.29	0.188 ± 0.43

Sequence	self-splicing fitness (ln) (30 °C)	self-splicing fitness (ln) (37 °C)
GCGAAGCAAUAUUACGUCUC	-2.04 ± 0.12	-1.41 ± 0.14
GCGAAGCAAUAUUACGUGAA	-2.3 ± 0.14	-0.526 ± 0.14
GCGAAGCAAUAUUACGUGGA	-1.9 ± 0.13	-2.88 ± 0.21
GCGAAGCAAUAUUACGUUCA	-1.03 ± 0.13	-0.809 ± 0.16
GCGAAGCAAUAUUACGUUCU	-1.93 ± 0.11	-0.859 ± 0.11
GCGAAGCAAUAUUACGUUGG	-4.02 ± 0.17	-2.97 ± 0.18
GCGAAGCAAUAUUACGUUUU	-3.16 ± 0.12	-2.5 ± 0.17
GCGCAGCAAUAUUACGAAUC	0.348 ± 0.15	-0.0791 ± 0.13
GCGCAGCAAUAUUACGAAUU	-1.64 ± 0.14	-0.932 ± 0.22
GCGCAGCAAUAUUACGAUAA	-1.85 ± 0.11	-0.604 ± 0.14
GCGCAGCAAUAUUACGAUAU	-1.18 ± 0.078	-0.433 ± 0.1
GCGCAGCAAUAUUACGCAGA	-3.32 ± 0.22	-2.5 ± 0.24
GCGCAGCAAUAUUACGCGCG	-3.1 ± 0.32	
GCGCAGCAAUAUUACGCGGG	-2.93 ± 0.1	-1.37 ± 0.097
GCGCAGCAAUAUUACGCGUC	-3.41 ± 0.16	-2.41 ± 0.2
GCGCAGCAAUAUUACGCGUU	-2.99 ± 0.14	-2.06 ± 0.15
GCGCAGCAAUAUUACGCUCG	-3.65 ± 0.38	-2.89 ± 0.34
GCGCAGCAAUAUUACGCUCU	-3.21 ± 0.28	-1.29 ± 0.23
GCGCAGCAAUAUUACGCUUG	-2.57 ± 0.12	-1.06 ± 0.12
